Data taken from ChEMBL document CHEMBL1142160, “Overexpression and initial characterization of the chromosomal aminoglycoside 3'-O-phosphotransferase APH(3')-IIb from Pseudomonas aeruginosa” (2007).

Tests used:
[1] = substrate: NC[C@@H]1O[C@@H](O[C@H]2[C@H](O)[C@@H](O[C@H]3O[C@H](CO)[C@@H](O)[C@H](N)[C@H]3O)[C@H](N)C[C@@H]2N)[C@@H](O)[C@H](O)[C@H]1O; test: (§1) Ratio of kcat to km for PH(3')-2b activity; details: Pseudomonas aeruginosa
[2] = substrate: NCC[C@H](O)C(=O)N[C@@H]1C[C@H](N)[C@@H](O[C@H]2O[C@H](CN)[C@@H](O)[C@H](O)[C@H]2O)[C@H](O)[C@H]1O[C@H]1O[C@H](CO)[C@@H](O)[C@H](N)[C@H]1O; test: as §1; details: Pseudomonas aeruginosa
[3] = substrate: NC[C@@H]1O[C@H](O[C@H]2[C@@H](O)[C@H](O[C@@H]3[C@@H](O)[C@H](N)C[C@H](N)[C@H]3O[C@H]3O[C@H](CN)[C@@H](O)[C@H](O)[C@H]3N)O[C@@H]2CO)[C@H](N)[C@@H](O)[C@@H]1O; test: as §1; details: Pseudomonas aeruginosa
[4] = substrate: NC[C@H]1O[C@H](O[C@H]2[C@H](O)[C@@H](O)[C@H](N)C[C@@H]2N)[C@H](N)[C@@H](O)[C@@H]1O; test: as §1; details: Pseudomonas aeruginosa
[5] = substrate: NC[C@H]1O[C@H](O[C@H]2[C@H](O[C@@H]3O[C@H](CO)[C@@H](O)[C@H]3O)[C@@H](O)[C@H](N)C[C@@H]2N)[C@H](N)[C@@H](O)[C@@H]1O; test: as §1; details: Pseudomonas aeruginosa
[6] = substrate: NC[C@@H]1O[C@@H](O[C@H]2[C@H](O)[C@@H](O[C@H]3O[C@H](CO)[C@@H](O)[C@H](N)[C@H]3O)[C@H](N)C[C@@H]2N)[C@@H](O)[C@H](O)[C@H]1O; test: (§2) Activity against Pseudomonas aeruginosa APH(3')-2b expressed in Escherichia coli BL21(DE3) assessed as phosphorylation
[7] = substrate: NCC[C@H](O)C(=O)N[C@@H]1C[C@H](N)[C@@H](O[C@H]2O[C@H](CN)[C@@H](O)[C@H](O)[C@H]2O)[C@H](O)[C@H]1O[C@H]1O[C@H](CO)[C@@H](O)[C@H](N)[C@H]1O; test: as §2
[8] = substrate: NC[C@@H]1O[C@H](O[C@H]2[C@@H](O)[C@H](O[C@@H]3[C@@H](O)[C@H](N)C[C@H](N)[C@H]3O[C@H]3O[C@H](CN)[C@@H](O)[C@H](O)[C@H]3N)O[C@@H]2CO)[C@H](N)[C@@H](O)[C@@H]1O; test: as §2
[9] = substrate: NC[C@H]1O[C@H](O[C@H]2[C@H](O)[C@@H](O)[C@H](N)C[C@@H]2N)[C@H](N)[C@@H](O)[C@@H]1O; test: as §2
[10] = substrate: NC[C@H]1O[C@H](O[C@H]2[C@H](O[C@@H]3O[C@H](CO)[C@@H](O)[C@H]3O)[C@@H](O)[C@H](N)C[C@@H]2N)[C@H](N)[C@@H](O)[C@@H]1O; test: as §2

B1: Aminoglycoside 3'-phosphotransferase type IIb (Pseudomonas aeruginosa (strain ATCC 15692 / PAO1 / 1C / PRS 101 / LMG12228)), Q9HWR2 (protein)
chain: MHDAATSMPPQAPSTWADYLAGYRWRGQGEGCSAATVHRLEAARRPTLFVKQEVLSAHAELPAEIARLRWLHGAGIDCPQVLNETQSDGRQWLLMSAVPGDTLSALAQRGELEPERLVRLVAAALRRLHDLDPAACPFDHRLERRLDTVRQRVEAGLVDEADFDDDHRGRSATELYRLLLDRRPAVEDLVVAHGDACLPNLLAEGRRFSGFIDCGRLGVADRHQDLALAARDIEAELGAAWAEAFLVEYGGDIDGERLAYFRLLDEFF
Protein B1 has a kcat/Km [1] of 360000 M⁻¹ s⁻¹, a kcat/Km [2] of 400000 M⁻¹ s⁻¹ and a kcat/Km [3] of 120000 M⁻¹ s⁻¹. It also gave a kcat/Km [4] of 170000 M⁻¹ s⁻¹, a kcat/Km [5] of 190000 M⁻¹ s⁻¹ and a Km [6] of 3.1 µM. The Km [7] was 440 µM, the Km [8] was 17.5 µM and the Km [9] was 10.3 µM. The Km [10] was 10 µM.
